According to the supplement of paper PMC5998384:

Columns and labels:
HeLa Kyoto [1] = assay: melting temperature (median over replicates), in situ; higher = more thermally stable
HeLa Kyoto [2] = assay: solubility in G1/S (NP-40 vs SDS abundance) (log2 ratio); higher = more soluble; settings: cell cycle stage: G1/S
HeLa Kyoto [3] = assay: thermal stability score vs G1/S (z-score of summed log2 fold changes over temperatures); higher = more thermally stable than in G1/S
HeLa Kyoto [4] = assay: solubility change mitosis vs G1/S (difference of NP-40 vs SDS log2 ratios) (log2 ratio difference); higher = more soluble in mitosis
[5] = cell cycle stage: early G1 (4.5 h after nocodazole release)
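Throughout, for melting temperature (median over replicates), in situ: HeLa Kyoto cells synchronized by double thymidine or nocodazole block, proteins quantified by TMT10plex mass spectrometry, three independent biological replicates.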
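Throughout, for solubility change mitosis vs G1/S (difference of NP-40 vs SDS log2 ratios): synchronized HeLa Kyoto cells (double thymidine block for G1/S, nocodazole release for mitosis), protein amounts in NP-40 versus SDS lysates quantified by mass spectrometry, three biological replicates.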
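Throughout, for solubility in G1/S (NP-40 vs SDS abundance): HeLa Kyoto cells arrested at G1/S by double thymidine block, proteins quantified by TMT10plex mass spectrometry in mild NP-40 versus SDS extracts, three biological replicates.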
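Throughout, for thermal stability score vs G1/S (z-score of summed log2 fold changes over temperatures): synchronized HeLa Kyoto cells, proteins quantified by TMT10plex mass spectrometry, three biological replicates, mitosis taken 0.5 h after nocodazole release, G1/S directly after double thymidine block.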

| Sequence | melting temperature (HeLa Kyoto [1]; cell cycle stage: G1/S) [°C] | melting temperature (HeLa Kyoto [1]; cell cycle stage: mitosis) [°C] | solubility in G1/S (log2) (HeLa Kyoto [2]) | thermal stability score (HeLa Kyoto [3]; [5]) | thermal stability score (HeLa Kyoto [3]; cell cycle stage: mitosis) | solubility change mitosis (log2) (HeLa Kyoto [4]) |
| --- | --- | --- | --- | --- | --- | --- |
| MESSRGRPGPETDLLAVAEHQALVFGGGPGRTSSEPPAGLRVSGEEETENVGGANRHPRTSPKTSSCGVVHRPEREALENEPGPQGTLSGAGSRRGAPGAEHEPSLSSRHKNPAPPEGKPSSGRDCRRGGPGGGMDVEQQEEEDNDEEAAAGSRAGRSFSSRLQDSRSLDGLSEACGGAGSSGSAESGAGGGRRATISSPLELEGTVSRHGDLTHFVANNLQLKIRLSGAPPPPPSAPARPCPAPAPTPTPAIPPIDPEVLRDLERLSRELGGRVDRLLRGLGGAVQELTALSVGCIQTYRDAVDSLGEAVDMSIKGMYTLLARCEELERALQPVQGLARQVRDIRRTLEVLEALCK [C17ORF59] | 53.5 | 53.8 | 0.166 | -2.61 | -1.39 | -0.0139 |
| MQVTLKTLQQQTFKIDIDPEETVKALKEKIESEKGKDAFPVAGQKLIYAGKILNDDTALKEYKIDEKNFVVVMVTKPKAVSTPAPATTQQSAPASTTAVTSSTTTTVAQAPTPVPALAPTSTPASITPASATASSEPAPASAAKQEKPAEKPAETPVATSPTATDSTSGDSSRSNLFEDATSALVTGQSYENMVTEIMSMGYEREQVIAALRASFNNPDRAVEYLLMGIPGDRESQAVVDPPQAASTGAPQSSAVAAAAATTTATTTTTSSGGHPLEFLRNQPQFQQMRQIIQQNPSLLPALLQQIGRENPQLLQQISQHQEHFIQMLNEPVQEAGGQGGGGGGGSGGIAEAGSGHMNYIQVTPQEKEAIERLKALGFPEGLVIQAYFACEKNENLAANFLLQQNFDED [RAD23B] | 57 | 54.1 | 0.0413 | -2.19 | -2.38 | 0.104 |
| MAAAAVSESWPELELAERERRRELLLTGPGLEERVRAAGGQLPPRLFTLPLLHYLEVSGCGSLRAPGPGLAQGLPQLHSLVLRRNALGPGLSPELGPLPALRVLDLSGNALEALPPGQGLGPAEPPGLPQLQSLNLSGNRLRELPADLARCAPRLQSLNLTGNCLDSFPAELFRPGALPLLSELAAADNCLRELSPDIAHLASLKTLDLSNNQLSEIPAELADCPKLKEINFRGNKLRDKRLEKMVSGCQTRSILEYLRVGGRGGGKGKGRAEGSEKEESRRKRRERKQRREGGDGEEQDVGDAGRLLLRVLHVSENPVPLTVRVSPEVRDVRPYIVGAVVRGMDLQPGNALKRFLTSQTKLHEDLCEKRTAATLATHELRAVKGPLLYCARPPQDLKIVPLGRKEAKAKELVRQLQLEAEEQRKQKKRQSVSGLHRYLHLLDGNENYPCLVDADGDVISFPPITNSEKTKVKKTTSDLFLEVTSATSLQICKDVMDALILKMAEMKKYTLENKEEGSLSDTEADAVSGQLPDPTTNPSAGKDGPSLLVVEQVRVVDLEGSLKVVYPSKADLATAPPHVTVVR [LRRC47] | 53 | 52.2 | 0.238 | -0.334 | -1.47 | 0.0172 |
| MDFNMKKLASDAGIFFTRAVQFTEEKFGQAEKTELDAHFENLLARADSTKNWTEKILRQTEVLLQPNPSARVEEFLYEKLDRKVPSRVTNGELLAQYMADAASELGPTTPYGKTLIKVAEAEKQLGAAERDFIHTASISFLTPLRNFLEGDWKTISKERRLLQNRRLDLDACKARLKKAKAAEAKATTVPDFQETRPRNYILSASASALWNDEVDKAEQELRVAQTEFDRQAEVTRLLLEGISSTHVNHLRCLHEFVKSQTTYYAQCYRHMLDLQKQLGRFPGTFVGTTEPASPPLSSTSPTTAAATMPVVPSVASLAPPGEASLCLEEVAPPASGTRKARVLYDYEAADSSELALLADELITVYSLPGMDPDWLIGERGNKKGKVPVTYLELLS [SH3GLB2] | 49.7 | 50.1 | 0.445 | -1.15 | 0.211 | -0.0988 |
| MPKVKRSRKAPPDGWELIEPTLDELDQKMREAETEPHEGKRKVESLWPIFRIHHQKTRYIFDLFYKRKAISRELYEYCIKEGYADKNLIAKWKKQGYENLCCLRCIQTRDTNFGTNCICRVPKSKLEVGRIIECTHCGCRGCSG [BUD31] | 51.1 | 50.9 | -0.0954 | 1.19 | 0.411 | 0.184 |
